Here are results for one protein from US7087420B1, “Microbial β-glucuronidase genes, gene products and uses thereof” (Cambia, priority 1997, dated 2006).

Substrate in the data set: O=C(O)[C@H]1O[C@@H](Oc2ccc([N+](=O)[O-])cc2)[C@H](O)[C@@H](O)[C@@H]1O
Briefly: Kinetics of pNPG hydrolysis by E. coli GUS (spectrophotometric p-nitrophenol release). Format: biochemical, Escherichia coli. The following applies: other: E. coli GUS, substrate pNPG, 37° C., pH 7.0.

Experimental: One such substrate is p-nitrophenyl β-D-glucuronide (pNPG), which when cleaved by GUS releases the chromophore p-nitrophenol. At a pH greater than its pKa (approximately 7.15), the ionized chromophore absorbs light at 400–420 nm, therefore appears in the yellow range of visible light. Briefly, reactions are performed in 50 mM Na3PO4 pH 7.0, 10 mM 2-ME, 1 mM EDTA, 1 mM pNPG, and 0.1% Triton® X-100 at 37° C. The reactions are terminated by the addition of 0.4 ml of 2-amino-2-methylpropanediol, and absorbance measured at 415 nm against a substrate blank. Under these conditions, the molar extinction coefficient of p-nitrophenol is assumed to be 14,000: One unit is defined as the amount of enzyme that produces 1 nmole of product/min at 37° C.
Turnover number is calculated as nmoles of pNPG converted to p-nitrophenol per min per μg of purified protein.

B1: E. coli β-glucuronidase (E. coli GUS, GUS^Eco), wild type, SEQ ID NO: 23 (Escherichia coli K-12) (protein)
chain: MLRPVETPTREIKKLDGLWAFSLDRENCGIDQRWWESALQESRAIAVPGSFNDQFADADIRNYAGNVWYQREVFIPKGWAGQRIVLRFDAVTHYGKVWVNNQEVMEHQGGYTPFEADVTPYVIAGKSVRITVCVNNELNWQTIPPGMVITDENGKKKQSYFHDFFNYAGIHRSVMLYTTPNTWVDDITVVTHVAQDCNHASVDWQVVANGDVSVELRDADQQVVATGQGTSGTLQVVNPHLWQPGEGYLYELCVTAKSQTECDIYPLRVGIRSVAVKGEQFLINHKPFYFTGFGRHEDADLRGKGFDNVLMVHDHALMDWIGANSYRTSHYPYAEEMLDWADEHGIVVIDETAAVGFNLSLGIGFEAGNKPKELYSEEAVNGETQQAHLQAIKELIARDKNHPSVVMWSIANEPDTRPQGAREYFAPLAEATRKLDPTRPITCVNVMFCDAHTDTISDLFDVLCLNRYYGWYVQSGDLETAEKVLEKELLAWQEKLHQPIIITEYGVDTLAGLHSMYTDMWSEEYQCAWLDMYHRVFDRVSAVVGEQVWNFADFATSQGILRVGGNKKGIFTRDRKPKSAAFLLQKRWTGMNFGEKPQQGGKQ
notes: pNPG substrate; functional homotetramer
Turning to B1, the Km came to 120 μM pNPG μM and the Vmax is 80 nmol/min/µg.
